Data reported in patent publication US20210054030.

Assays:
[1] = system: TALE-HD (MAPK6 target) (Xanthomonas (TALE scaffold)?); experiment: inhibition; conditions: MspI protection, 25 C
[2] = system: TALE-(CP)3-VP64 (Xanthomonas (TALE scaffold)?); experiment: cell_activity; conditions: HEK293T
[3] = system: TALE-(CV)3-VP64 (Xanthomonas (TALE scaffold)?); experiment: cell_activity; conditions: HEK293T
[4] = system: TALE-(FT)3-VP64 (Xanthomonas (TALE scaffold)?); experiment: cell_activity; conditions: HEK293T
[5] = system: TALE-(NP)3-VP64 (Xanthomonas (TALE scaffold)?); experiment: cell_activity; conditions: HEK293T
[6] = system: TET1 TALE-VP64 (RG) (Xanthomonas (TALE scaffold)?); experiment: cell_activity; conditions: 5mC at CpG (cellular, high); HeLa
[7] = 6mA at bases 7-9 of the site, forward strand

TTCAGCTGGATCCCGGGAGGAGCGGATATAACCAGG (double strand) [MAPK6 probe, 5mC]
binding signal (fold higher Ki than for C) ([1]; 5mC at second C of the MspI site CCGG (C14)): > 30

CTGGCCAAATACGTA (double strand) [6mA reporter]
activity (fold EGFP induction) [2, 7]: > 5
activity (fold EGFP induction) [3, 7]: > 5
activity (fold EGFP induction) [4, 7]: > 5
activity (fold EGFP induction) ([5]; 6mA at bases 7-9 of the site, forward strand, strongest of the 6mA-specific RVDs): > 5

CTGGCCAAATACGTA (double strand) [A reporter]
6mA/A selectivity ratio [2]: > 5 6mA/A ratio
6mA/A selectivity ratio [3]: > 5 6mA/A ratio
6mA/A selectivity ratio [4]: > 5 6mA/A ratio
6mA/A selectivity ratio [5]: > 5 6mA/A ratio

TAGGCGTCCTCCGCGAC (double strand) [TET1 promoter, HeLa (highly methylated)]
activity (fold induction) [6]: 10

TTCAGCTGGATCCCGGGAGGAGCGGATATAACCAGG (double strand) [MAPK6 probe, 5hmC]
binding signal (fold higher Ki than for C) ([1]; 5hmC at second C of the MspI site CCGG (C14)): > 30
